# Results taken from PMC11264168.
# Assays:
# [1] = target: SyB-Cph1(GAF-PHY), the GAF-PHY fragment (photo-sensing module) of the PAS-less phytochrome SyB-Cph1, residues 1-421, assembled with phycocyanobilin, as Pr (Synechococcus sp. JA-2-3B'a(2-13)); experiment: SEC; Pr in darkness, 30 mM Tris-HCl (pH 8.0), Superdex 200 Increase 10/300 GL, 0.5 ml/min, gel filtration mass standards
# [2] = target: SyB-Cph1(GAF-PHY) Arg101-Ala mutant (Synechococcus sp. JA-2-3B'a(2-13)); experiment: SEC; arginine-to-alanine mutants; data not shown
# [3] = target: SyB-Cph1(GAF-PHY) Arg111-Ala mutant (Synechococcus sp. JA-2-3B'a(2-13)); experiment: SEC; arginine-to-alanine mutants; data not shown
# [4] = target: SyB-Cph1(GAF-PHY) Arg133-Ala mutant (Synechococcus sp. JA-2-3B'a(2-13)); experiment: SEC; arginine-to-alanine mutants; data not shown
substance,measurement,setting,value
"SyB-Cph1(GAF-PHY), the GAF-PHY fragment (photo-sensing module) of the PAS-less phytochrome SyB-Cph1, residues 1-421, assembled with phycocyanobilin, as Pr (domain or fragment)",stoichiometry N,[1],2
SyB-Cph1(GAF-PHY) Arg101-Ala mutant (domain or fragment),stoichiometry N,[2],2
SyB-Cph1(GAF-PHY) Arg111-Ala mutant (domain or fragment),stoichiometry N,[3],2
SyB-Cph1(GAF-PHY) Arg133-Ala mutant (domain or fragment),stoichiometry N,[4],2
